The record followed here is patent publication US20230086530A1.

Assay [1] deals with human CD47 on the cell membrane surface of CD47 positive tumor cells (Raji, NUGC-4, Jurkat) (human) (UniProt Q08722). Briefly: FACS on Raji cells, 0.5 µg/mL.
For assay [2] the target is unchanged. Nature of the assay: FACS on Raji cells, 0.05 µg/mL.

Chain of human CD47 on the cell membrane surface of CD47 positive tumor cells (Raji, NUGC-4, Jurkat) (human) (Q08722 19-323): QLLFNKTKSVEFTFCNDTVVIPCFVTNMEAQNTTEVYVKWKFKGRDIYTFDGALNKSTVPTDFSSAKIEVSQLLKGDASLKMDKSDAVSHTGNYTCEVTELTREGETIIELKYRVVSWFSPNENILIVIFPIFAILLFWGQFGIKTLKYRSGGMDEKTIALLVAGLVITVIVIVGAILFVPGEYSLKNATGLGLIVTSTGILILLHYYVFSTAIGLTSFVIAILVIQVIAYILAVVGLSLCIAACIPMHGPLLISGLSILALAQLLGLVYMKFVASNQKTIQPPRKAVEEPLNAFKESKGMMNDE

For isotype control antibody, the Mean fluorescence intensity (multiple) in assay [1] and in assay [2] was 1 fold in each case.
